Data from the supplement of paper PMC7125110.
± gives the standard error. Variants at the floor of the assay were thinned out.

B1: glmS ribozyme (parent)
chain: AUAAAAGCGCCAGAACUACAGAAAUGUAGUUGACGAGGAGGAGGUUUAUCGAAUUUUCGGCGGAUGCCUCCAAA

What was measured:
Conditions in all cases: with glucosamine-6-phosphate
glucosamine-6-phosphate [1] = variants of: B1; assay: self-cleavage kobs at 640 uM GlcN6P; higher = faster cleavage; RNA array
How it was run: (§1)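 Barcoded ribozyme variants on sequenced MiSeq chips were transcribed in situ by E. coli RNA polymerase and followed at 37 °C through a hybridised Cy3 probe. Glucosamine-6-phosphate at 40 μM to 10 mM in HEPES/KCl/Mg(OAc)2 buffer was flowed in, and tiles were imaged over ~14 h. Signals were normalised to baseline and to non-cleaving reference variants, and per-tile medians were fit to one- or two-exponential decays to give kobs. Weighted Michaelis–Menten fits across concentrations gave kcat and KM.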

glucosamine-6-phosphate [2] = variants of: B1; assay: self-cleavage kobs at 2500 uM GlcN6P; higher = faster cleavage; RNA array
How it was run: as §1

glucosamine-6-phosphate [3] = variants of: B1; assay: self-cleavage kobs at 10000 uM GlcN6P; higher = faster cleavage; RNA array
How it was run: as §1

| Variant | self-cleavage kobs at 640 uM GlcN6P (glucosamine-6-phosphate [1]) [s⁻¹] | self-cleavage kobs at 2500 uM GlcN6P (glucosamine-6-phosphate [2]) [s⁻¹] | self-cleavage kobs at 10000 uM GlcN6P (glucosamine-6-phosphate [3]) [s⁻¹] |
| --- | --- | --- | --- |
| C11A U31G G35C | < 1e-05 | < 1e-05 |  |
| U31G G44A C68U | < 1e-05 |  |  |
| C50U C61A A64U C67G | 8.84e-05 ± 4.2e-05 | 9.68e-05 ± 4.1e-05 |  |
| G40U G41U U49G C61G | < 1e-05 | < 1e-05 |  |
| C11A U55G C61G G62C | < 1e-05 |  |  |
| G7A G40U U45G C58G | < 1e-05 | < 1e-05 |  |
| A12G A15G G35A C68G | < 1e-05 |  |  |
| G32U G35A U55G C68A | < 1e-05 | < 1e-05 |  |
| A33C A52C | < 1e-05 | < 1e-05 |  |
| C16U A39U A42C | 8.5e-05 ± 2.3e-05 | 0.000172 ± 3.6e-05 |  |
| U30G A42G G66A C71A | 0.00018 ± 5.9e-05 | 0.000159 ± 4.2e-05 |  |
| G7C A15C A39U A42C U57A | < 1e-05 | < 1e-05 |  |
| C8A U69A | 0.00169 ± 0.00074 |  |  |
| G35A A53G G60C | < 1e-05 | < 1e-05 |  |
| C16U C34U G66U C68G | 0.000354 ± 0.0001 |  |  |
| G32C G35A A36U U47G U56G | < 1e-05 | < 1e-05 |  |
| G13C C50A | < 1e-05 |  | < 1e-05 |
| G7U G66A C67U | < 1e-05 | < 1e-05 |  |
| A52G U69G C70U | 0.000107 ± 3.1e-05 | 7.59e-05 ± 1.7e-05 |  |
| A14U U65A C70U | 0.000274 ± 4.7e-05 | 0.000248 ± 9.4e-05 | 0.000945 ± 0.0002 |
| A12U G29U G37A U55A | 0.000291 ± 8.3e-05 | 0.000446 ± 9.5e-05 |  |
| A12C U30C U57G U65C | < 1e-05 |  |  |

| Variant | self-cleavage kobs at 640 uM GlcN6P (glucosamine-6-phosphate [1]) [s⁻¹] | self-cleavage kobs at 2500 uM GlcN6P (glucosamine-6-phosphate [2]) [s⁻¹] | self-cleavage kobs at 10000 uM GlcN6P (glucosamine-6-phosphate [3]) [s⁻¹] |
| --- | --- | --- | --- |
| U46A A53G U65G | 0.000479 ± 0.00011 |  |  |
| G13A A52U C70G | < 1e-05 |  |  |
| C16A G44C U54C | < 1e-05 |  |  |
| A15G G44C G59U | < 1e-05 | < 1e-05 |  |
| A36G G41C | < 1e-05 |  | < 1e-05 |
| A6C A33C A48C G60U | < 1e-05 |  |  |
| G7C C10U G43U | < 1e-05 |  |  |
| A15G G40A G59U C67G | < 1e-05 | < 1e-05 |  |
| G51C U56A | < 1e-05 |  | < 1e-05 |
| A14G C34U U54G C58G U69G | 0.000551 ± 0.0002 |  |  |
| C19A G44U | 2.94e-05 ± 1.3e-05 | 0.000114 ± 2.7e-05 |  |
| A14C G41A G62U C70G | < 1e-05 | < 1e-05 |  |
| G29C U56A C67G | 4.47e-05 ± 2.1e-05 | 7.09e-05 ± 2e-05 |  |
| U45G U69C | 0.0407 ± 0.018 |  |  |
| G9C A15C A53U | < 1e-05 |  |  |
| A39U C58A A64U | < 1e-05 | < 1e-05 |  |
| C11G A14G G41A G43C | < 1e-05 | < 1e-05 |  |
| G60U U69A | < 1e-05 | < 1e-05 | < 1e-05 |
| A36G A39U G43A U45G G59A | < 1e-05 |  |  |
| U30C G32C U55A | 8.42e-05 ± 1.7e-05 | 0.000128 ± 3.1e-05 |  |
| G35A U65C U69C | < 1e-05 |  |  |
| G35U C67A U69C | < 1e-05 |  |  |

| Variant | self-cleavage kobs at 640 uM GlcN6P (glucosamine-6-phosphate [1]) [s⁻¹] | self-cleavage kobs at 2500 uM GlcN6P (glucosamine-6-phosphate [2]) [s⁻¹] | self-cleavage kobs at 10000 uM GlcN6P (glucosamine-6-phosphate [3]) [s⁻¹] |
| --- | --- | --- | --- |
| A36G U45A U49C | < 1e-05 | < 1e-05 |  |
| A39G U45A U57C | 0.000107 ± 2.6e-05 | 0.000294 ± 7.7e-05 |  |
| A14G A33G G37A C50G C70G | 6.3e-05 ± 2.1e-05 | 4.9e-05 ± 1.5e-05 |  |
| U49A C50G | < 1e-05 |  |  |
| A15C U30A U31G C34G C67G | 5.05e-05 ± 2.3e-05 |  |  |
| C11A G37A C50U G59A C67U U69G | 6.37e-05 ± 2.7e-05 |  |  |
| G9U A12C | < 1e-05 |  | < 1e-05 |
| A6G G32C G51C | < 1e-05 |  |  |
| C19A A33U C50G U56C C58U G63U C68G | 0.000599 ± 0.00016 |  |  |
| G29C G51A C67G C68G U69G | 5.75e-05 ± 2.7e-05 |  |  |
| C8G C16U U57A | < 1e-05 | < 1e-05 |  |
| A39U G43U C50U | < 1e-05 | < 1e-05 |  |
| C34G A36G C71U | < 1e-05 |  |  |
| U31C G32A A39G | 0.000252 ± 4.9e-05 |  | 0.0014 ± 0.00028 |
| C11U G32C A36G | < 1e-05 | < 1e-05 | < 1e-05 |
| A12G G13U U47G A53U G66A | < 1e-05 |  |  |
| G37U C50A G51C | < 1e-05 |  |  |
| A15U G38U G63U | < 1e-05 |  |  |
| C8A A48G A53U | < 1e-05 | < 1e-05 |  |
| A14U C16G G35U A36U G38U U56C U57G G60U | < 1e-05 | < 1e-05 |  |
